Assay [1] has as its target T1, bovine trypsin (bovine, UniProt P00760). The assay is described as follows: GPK-AMC enzyme inhibition assay with bovine trypsin. As for the experimental part:
(§1) Inhibitory activity against tryptase and bovine trypsin was measured using Gly-Pro-Lys-aminomethylcoumarin as a substrate. The reaction was performed in assay buffer that consisted of 0.1M Tris (pH 8.0), 1 µg/ml heparin, 0.02% Triton X-100, with 20 mM CaCl_2 included only in the trypsin assays. The amount of coumarin produced was determined by measuring the fluorescence (ex=370 nm, em=432 nm) on a Perkin-Elmer LS-50B fluorimeter. To measure tryptase activity, 12 µl of a 1 nM solution of tryptase (tetramer) was incubated with either the N- (34 to 650 nM final) or the C-terminal (7–150 nM final) domain of SLPI in 1.0 ml of assay buffer for 5 minutes at 37° C. The reaction was started by the addition of the substrate GPK-AMC (20 or 40 µM final) and the increase in fluorescence was measured over a 2 minute period. In order to measure trypsin activity, 3.3 µl of a 10 µg/ml solution was incubated with either the N- or C- terminal domains of SLPI, and assayed using both 10 and 20 µM GPK-AMC. To determine K_i values, Dixon plots of the form 1/V vs [I] were constructed. These are shown in FIG. 8, and the results are listed in Table V. The K_i values for the inhibition of the tryptase catalyzed cleavage of GPK-AMC by the N- and C-terminal domains were determined to be 290 nM and 4.8 nM, respectively (FIG. 8).

For assay [2], the target named is T1, bovine trypsin. The assay is described as follows: GPK-AMC enzyme inhibition assay, Dixon plot, bovine trypsin. As for the experimental part:
as §1

A word on the Ki: it is the equilibrium dissociation constant of an inhibitor or competing ligand from its target. High values mean lower affinity, low ones higher affinity. SGKSFKAGVCPPKKSAQCLRYKKPECQSDWQCPGKKRCCPDTCGIKCLD (other) [N-terminal domain of SLPI (amino acids 1-49)]: in assay [1], the binding result is reported as “no binding (tested: 1800 nM)”. In assay [2], this molecule showed a Ki above 1800 nM.

B1: C-terminal domain of SLPI (amino acids 50-107) (other)
chain: PVDTPNPTRRKPGKCPVTYGQCLMLNPPNFCEMDGQCKRDLKCCMGMCGKSCVSPVKA
The molecule B1 had an inhibitory constant (Ki) in assay [2] of 130 nM.

Source of the values: patent US5633227, “Secretory leukocyte protease inhibitor as an inhibitor of tryptase” (Miles, Inc., dated 1997).
